From patent publication US20260226191A1 (SHANDONG SIMCERE BIOPHARMACEUTICAL, published 2026)

T1: Cyno MUC17 ECD3577-mFc (mFc-tagged cynomolgus monkey MUC17 protein extracellular region fusion protein) (cynomolgus monkey)
T1 construct: also called monkey MUC17-mFc protein; Monkey MUC17-ECD3577-mFc protein
T1 chain: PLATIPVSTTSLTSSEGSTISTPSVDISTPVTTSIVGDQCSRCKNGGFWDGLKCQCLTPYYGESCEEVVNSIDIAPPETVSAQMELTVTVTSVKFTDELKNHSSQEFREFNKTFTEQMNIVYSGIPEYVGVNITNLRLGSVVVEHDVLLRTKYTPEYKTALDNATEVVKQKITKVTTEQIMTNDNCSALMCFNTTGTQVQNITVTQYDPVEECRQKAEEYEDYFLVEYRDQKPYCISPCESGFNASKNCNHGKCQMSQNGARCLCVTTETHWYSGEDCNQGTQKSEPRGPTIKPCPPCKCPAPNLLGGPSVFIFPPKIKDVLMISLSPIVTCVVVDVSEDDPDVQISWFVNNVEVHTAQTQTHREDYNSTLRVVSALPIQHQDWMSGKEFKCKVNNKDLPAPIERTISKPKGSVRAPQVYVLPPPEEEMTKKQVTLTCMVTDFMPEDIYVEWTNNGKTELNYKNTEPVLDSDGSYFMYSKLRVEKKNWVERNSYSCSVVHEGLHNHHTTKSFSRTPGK


How the values were obtained:
[1] = target: T1, Cyno MUC17 ECD3577-mFc (mFc-tagged …); experiment: SPR (Biacore 8K), antibody captured on Protein A, antigen injected, 25 C, 1:1 model
[2] = target: T2, Human MUC17 ECD4131-his (His-tagged human MUC17 protein extracellular region fusion protein) (human, UniProt Q685J3 4131-4393); experiment: as above
T2 construct: also called human MUC17-his protein; Human MUC17-ECD(4131-4393)-His protein

[3] = target: T3, human cell surface CD3 (Jurkat cells, human PBMCs) (human, UniProt P07766 23-207); experiment: FACS on naive human PBMCs (CD3), MFI
T3 construct: whole, on cells; CD3 is a multi-chain complex on the cell
T3 sequence (P07766 23-207): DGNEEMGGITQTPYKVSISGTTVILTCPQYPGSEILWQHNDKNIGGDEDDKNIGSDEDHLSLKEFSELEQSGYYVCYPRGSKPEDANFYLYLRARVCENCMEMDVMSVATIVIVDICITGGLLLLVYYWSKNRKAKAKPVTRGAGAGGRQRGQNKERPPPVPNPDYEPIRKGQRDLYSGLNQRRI

[4] = target: T2, Human MUC17 ECD4131-his (His-tagged …); experiment: ELISA, human MUC17-his coated on the plate, OD450
[5] = target: T1, Cyno MUC17 ECD3577-mFc (mFc-tagged …); experiment: ELISA, cynomolgus MUC17-mFc coated on the plate, OD450
[6] = target: T4, human MUC17 on endogenous tumor cells (NUGC4, SNU16, ASPC1) (human); experiment: FACS on SNU16 cells (endogenous human MUC17), MFI
T4 construct: whole, on cells; also called MUC17-positive tumor cells

[7] = target: T4, human MUC17 on endogenous tumor cells …; experiment: FACS on AspC-1 cells (endogenous human MUC17), MFI
[8] = target: T5, monkey MUC17 on FlpinCHO-cynoMUC17-D1 cells (monkey); experiment: FACS on FlpinCHO-cynoMUC17-D1 cells, MFI
T5 construct: On cells; also called recombinant cells overexpressing monkey MUC17

[9] = target: T4, human MUC17 on endogenous tumor cells …; experiment: FACS on NUGC4 cells (endogenous human MUC17), MFI
[10] = target: T4, human MUC17 on endogenous tumor cells …; experiment: cell-based or functional assay
[11] = target: T6, human MUC17 fragment on FlpinCHO-huMUC17-D1 cells (human); experiment: FACS on FlpinCHO-huMUC17-D1 cells, MFI
T6 construct: On cells; also called cells overexpressing human MUC17

[12] = target: T7, Human CD3e-His protein (Sino Biological, CAT #10977-H08H) (human, UniProt P07766 23-126); experiment: ELISA, human CD3e-His coated on the plate, OD450
T7 construct: Bought reagent; also called human CD3e protein
T7 sequence (P07766 23-126 limits assumed): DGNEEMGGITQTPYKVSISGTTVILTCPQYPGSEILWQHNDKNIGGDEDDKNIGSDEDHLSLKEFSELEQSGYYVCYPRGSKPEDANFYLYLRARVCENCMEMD

| Binder | Kd [1] | koff [1] | kon [1] | Kd [2] | koff [2] | kon [2] | EC50 (read off the curve) [3] | EC50 (read off the curve) [4] | EC50 (read off the curve) [5] | EC50 (read off the curve) [6] | EC50 (read off the curve) [7] | EC50 (read off the curve) [8] | EC50 (read off the curve) [9] | PBMC-mediated in vitro tumor cell killing EC50, ASPC-1 [10] | PBMC-mediated in vitro tumor cell killing EC50, NUGC4 [10] | EC50 (read off the curve) [11] | binding result [12] |
| --- | --- | --- | --- | --- | --- | --- | --- | --- | --- | --- | --- | --- | --- | --- | --- | --- | --- |
| Bis 58 (bispecific antibody, human IgG1, kappa, Three-chain asymmetric MUC17xCD3 bispecific) heavy: EVQLVESGGGVVQPGRSLRLSCAASGFTFTDYYMSWVRQAPGKGLEWVAMSRNKAKGHTIEYSSSVKGRFTISRDNSKNTLYLQMNSLRAEDTAVYYCARDTYESYDGYFDVWGQGTTVTVSSASTKGPSVFPLAPSSKSTSGGTAALGCLVKDYFPEPVTVSWNSGALTSGVHTFPAVLQSSGLYSLSSVVTVPSSSLGTQTYICNVNHKPSNTKVDKKVEPKSCDKTHTCPPCPAPEAAGAPSVFLFPPKPKDTLMISRTPEVTCVVVDVSHEDPEVKFNWYVDGVEVHNAKTKPREEQYNSTYRVVSVLTVLHQDWLNGKEYKCKVSNKALPAPIEKTISKAKGQPREPQVYTLPPSREEMTKNQVSLWCLVKGFYPSDIAVEWESNGQPENNYKTTPPVLDSDGSFFLYSKLTVDKSRWQQGNVFSCSVMHEALHNHYTQKSLSLSPG light: not shown EVQLVESGGGLVQPGGSLRLSCAASGFPSSRGTMAWFRQAPGKEREGVAFINSDGRTSYAESVKGRFTISRDNAKNSLYLQMNSLRAEDTAVYYCAASLLYLMTVNAAAYPYWGQGTMVTVSSGGGDKTHTCPPCPAPEAAGAPSVFLFPPKPKDTLMISRTPEVTCVVVDVSHEDPEVKFNWYVDGVEVHNAKTKPREEQYNSTYRVVSVLTVLHQDWLNGKEYKCKVSNKALPAPIEKTISKAKGQPREPQVYTLPPSREEMTKNQVSLSCAVKGFYPSDIAVEWESNGQPENNYKTTPPVLDSDGSFFLVSKLTVDKSRWQQGNVFSCSVMHEALHNHYTQKSLSLSPG | 7.11 nM | 0.00031 s⁻¹ | 43600 M⁻¹ s⁻¹ | 0.378 nM | 0.000138 s⁻¹ | 364000 M⁻¹ s⁻¹ | ~50 nM | ~0.05 nM | ~0.07 nM | ~0.2 nM | ~0.2 nM | ~8 nM | ~0.5 nM | 0.0194 nM | 0.0271 nM | ~1 nM | – |
| Bis 92 (bispecific antibody, human IgG1, kappa, Three-chain asymmetric MUC17xCD3 bispecific) heavy: EVQLVESGGGVVQPGRSLRLSCAASGFTFTDYYMSWVRQAPGKGLEWVAMSRNKAKGHTIEYSSSVKGRFTISRDNSKNTLYLQMNSLRAEDTAVYYCARDTYESYDGYFDVWGQGTTVTVSSASTKGPSVFPLAPSSKSTSGGTAALGCLVKDYFPEPVTVSWNSGALTSGVHTFPAVLQSSGLYSLSSVVTVPSSSLGTQTYICNVNHKPSNTKVDKKVEPKSCDKTHTCPPCPAPEAAGAPSVFLFPPKPKDTLMISRTPEVTCVVVDVSHEDPEVKFNWYVDGVEVHNAKTKPREEQYNSTYRVVSVLTVLHQDWLNGKEYKCKVSNKALPAPIEKTISKAKGQPREPQVYTLPPSREEMTKNQVSLWCLVKGFYPSDIAVEWESNGQPENNYKTTPPVLDSDGSFFLYSKLTVDKSRWQQGNVFSCSVMHEALHNHYTQKSLSLSPG light: not shown EVQLVESGGGVVQPGGSLRLSCAASGYTSNRYSMAWFRQAPGKEREVVAFIWTDGGRTYYADSVKGRFTISRDNSKNTLYLQMNSLRAEDTAVYYCAASSLLLQTINPRAWPYWGQGTMVTVSSGGGDKTHTCPPCPAPEAAGAPSVFLFPPKPKDTLMISRTPEVTCVVVDVSHEDPEVKFNWYVDGVEVHNAKTKPREEQYNSTYRVVSVLTVLHQDWLNGKEYKCKVSNKALPAPIEKTISKAKGQPREPQVYTLPPSREEMTKNQVSLSCAVKGFYPSDIAVEWESNGQPENNYKTTPPVLDSDGSFFLVSKLTVDKSRWQQGNVFSCSVMHEALHNHYTQKSLSLSPG | 13.4 nM | 0.000511 s⁻¹ | 38100 M⁻¹ s⁻¹ | 0.136 nM | 7.81e-05 s⁻¹ | 572000 M⁻¹ s⁻¹ | – | ~0.05 nM | ~0.09 nM | ~0.08 nM | ~0.08 nM | ~20 nM | ~0.2 nM | 0.00739 nM | 0.00779 nM | ~1 nM | binds |
